Laboratory results as given in the supplement of paper PMC9112550, “Optimization of the antimicrobial peptide Bac7 by deep mutational scanning” (BMC Biology, 2022).

Test system: Escherichia coli TOP10
Assay: shrunken log2 fold change of peptide-encoding DNA abundance (4.5 h post-induction vs induction); higher = less antimicrobial activity (less host growth inhibition)
Conditions: time post-induction: 4.5 h; library: site-saturation at positions 5, 18, 19, 20
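Further: peptides expressed intracellularly from a pBAD plasmid library in pooled LB shake-flask culture, induced with 0.3% L-arabinose, DNA abundance read by NGS, three biological replicates, DESeq2 with apeglm shrinkage.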

Row | Sequence | shrunken log2 fold change
1 | RRIRLRPPRLPRPRPRPNRNPRP | -0.884
2 | RRIRWRPPRLPRPRPRPWKDPRP | -0.000687
3 | RRIRFRPPRLPRPRPRPLYFPRP | -0.72
4 | RRIRARPPRLPRPRPRPHYKPRP | -0.424
5 | RRIRKRPPRLPRPRPRPNNTPRP | -0.243
6 | RRIRDRPPRLPRPRPRPNANPRP | 0.000903
7 | RRIRGRPPRLPRPRPRPAGHPRP | 0.562
8 | RRIRERPPRLPRPRPRPQRIPRP | -0.0866
9 | RRIRVRPPRLPRPRPRPITKPRP | 0.0714
10 | RRIRTRPPRLPRPRPRPILPPRP | -0.066
11 | RRIRMRPPRLPRPRPRPDPGPRP | 0.46
12 | RRIRSRPPRLPRPRPRPRNWPRP | 0.318
13 | RRIRARPPRLPRPRPRPSDEPRP | 0.324
14 | RRIRLRPPRLPRPRPRPQTMPRP | -0.0345
15 | RRIRHRPPRLPRPRPRPSYKPRP | -0.0553
16 | RRIRNRPPRLPRPRPRPTPMPRP | 0.0289
17 | RRIRYRPPRLPRPRPRPFMTPRP | -2.5
18 | RRIRSRPPRLPRPRPRPPISPRP | -0.0261
19 | RRIRIRPPRLPRPRPRPSCTPRP | -0.407
20 | RRIRARPPRLPRPRPRPIEMPRP | 0.563
21 | RRIRFRPPRLPRPRPRPNENPRP | 0.00257
22 | RRIRGRPPRLPRPRPRPFNKPRP | -0.158
23 | RRIRERPPRLPRPRPRPQGPPRP | 0.0515
24 | RRIRPRPPRLPRPRPRPRNVPRP | 0.0758
25 | RRIRFRPPRLPRPRPRPWFYPRP | -0.587

Row | Sequence | shrunken log2 fold change
26 | RRIRRRPPRLPRPRPRPWRYPRP | 0.322
27 | RRIRNRPPRLPRPRPRPFLIPRP | 0.117
28 | RRIRGRPPRLPRPRPRPCTSPRP | 0.188
29 | RRIRKRPPRLPRPRPRPRLAPRP | 0.772
30 | RRIRIRPPRLPRPRPRPNNKPRP | -0.85
31 | RRIRGRPPRLPRPRPRPHCLPRP | 0.196
32 | RRIRVRPPRLPRPRPRPEEYPRP | -0.411
33 | RRIRCRPPRLPRPRPRPQGVPRP | 0.0642
34 | RRIRARPPRLPRPRPRPTFIPRP | -0.18
35 | RRIRRRPPRLPRPRPRPHRPPRP | 0.203
36 | RRIRERPPRLPRPRPRPSNMPRP | -0.683
37 | RRIRARPPRLPRPRPRPLPIPRP | 0.205
38 | RRIRRRPPRLPRPRPRPLFWPRP | 0.472
39 | RRIRWRPPRLPRPRPRPEGFPRP | 0.192
40 | RRIRLRPPRLPRPRPRPGQGPRP | -0.0179
41 | RRIRYRPPRLPRPRPRPHGTPRP | -0.209
42 | RRIRSRPPRLPRPRPRPDLSPRP | 0.101
43 | RRIRFRPPRLPRPRPRPNKKPRP | -0.212
44 | RRIRARPPRLPRPRPRPLLEPRP | 0.834
45 | RRIRFRPPRLPRPRPRPKGTPRP | -0.429
46 | RRIRLRPPRLPRPRPRPTHYPRP | -0.18
47 | RRIRQRPPRLPRPRPRPGHAPRP | 0.116
48 | RRIRARPPRLPRPRPRPCMCPRP | 0.118
49 | RRIRIRPPRLPRPRPRPPWRPRP | 0.507
50 | RRIRGRPPRLPRPRPRPGTWPRP | 0.255

Row | Sequence | shrunken log2 fold change
51 | RRIRQRPPRLPRPRPRPPTYPRP | -0.0183
52 | RRIRLRPPRLPRPRPRPWTQPRP | 0.13
53 | RRIRDRPPRLPRPRPRPFFQPRP | -0.24
54 | RRIRKRPPRLPRPRPRPRGVPRP | 0.782
55 | RRIRDRPPRLPRPRPRPDWNPRP | -0.0851
56 | RRIRNRPPRLPRPRPRPGDTPRP | -0.0217
57 | RRIRWRPPRLPRPRPRPMWLPRP | 0.244
58 | RRIRKRPPRLPRPRPRPRWKPRP | 0.702
59 | RRIRDRPPRLPRPRPRPWHEPRP | -0.266
60 | RRIRTRPPRLPRPRPRPMWHPRP | -0.391
61 | RRIRCRPPRLPRPRPRPYQGPRP | 0.0299
62 | RRIRGRPPRLPRPRPRPIIDPRP | 0.859
63 | RRIRLRPPRLPRPRPRPDWLPRP | 0.318
64 | RRIRIRPPRLPRPRPRPAMDPRP | -0.218
65 | RRIRERPPRLPRPRPRPFSTPRP | -0.0931
66 | RRIRERPPRLPRPRPRPNFFPRP | -0.0705
67 | RRIRIRPPRLPRPRPRPNIDPRP | -0.619
68 | RRIRCRPPRLPRPRPRPAIQPRP | -0.0767
69 | RRIRVRPPRLPRPRPRPRFHPRP | -0.264
70 | RRIRIRPPRLPRPRPRPNGNPRP | -0.365
71 | RRIRMRPPRLPRPRPRPIRRPRP | -0.168
72 | RRIRFRPPRLPRPRPRPCTWPRP | -0.0991
73 | RRIRSRPPRLPRPRPRPHMMPRP | -0.113
74 | RRIRGRPPRLPRPRPRPPIEPRP | 0.196
75 | RRIRPRPPRLPRPRPRPPPQPRP | 0.963

Row | Sequence | shrunken log2 fold change
76 | RRIRPRPPRLPRPRPRPDRWPRP | 0.219
77 | RRIRARPPRLPRPRPRPVIMPRP | -0.42
78 | RRIRGRPPRLPRPRPRPNDLPRP | 0.338
79 | RRIRARPPRLPRPRPRPTRHPRP | 0.615
80 | RRIRKRPPRLPRPRPRPGALPRP | 0.656
81 | RRIRARPPRLPRPRPRPEMYPRP | 0.151
82 | RRIRLRPPRLPRPRPRPNAKPRP | -0.0021
83 | RRIRTRPPRLPRPRPRPAQLPRP | -0.216
84 | RRIRERPPRLPRPRPRPYNGPRP | -0.509
85 | RRIRDRPPRLPRPRPRPGEMPRP | 0.163
86 | RRIRWRPPRLPRPRPRPDWIPRP | -0.0204
87 | RRIRNRPPRLPRPRPRPSEIPRP | -0.0685
88 | RRIRGRPPRLPRPRPRPNGSPRP | -0.0904
89 | RRIRLRPPRLPRPRPRPIPEPRP | 0.0268
90 | RRIRARPPRLPRPRPRPNCTPRP | 0.172
91 | RRIRYRPPRLPRPRPRPPAPPRP | 0.76
92 | RRIRMRPPRLPRPRPRPKDWPRP | 1.43
93 | RRIRWRPPRLPRPRPRPQTYPRP | -1.17
94 | RRIRGRPPRLPRPRPRPHDHPRP | -0.027
95 | RRIRDRPPRLPRPRPRPFYLPRP | -0.085
96 | RRIRARPPRLPRPRPRPSIIPRP | -0.254
97 | RRIRERPPRLPRPRPRPKDDPRP | 0.104
98 | RRIRARPPRLPRPRPRPAYWPRP | 0.393
99 | RRIRHRPPRLPRPRPRPRFAPRP | 0.0665
100 | RRIRRRPPRLPRPRPRPQSKPRP | -0.0754

Row | Sequence | shrunken log2 fold change
101 | RRIRDRPPRLPRPRPRPSDYPRP | -0.566
102 | RRIRRRPPRLPRPRPRPQTAPRP | -0.11
103 | RRIRGRPPRLPRPRPRPKIYPRP | 0.000217
104 | RRIRHRPPRLPRPRPRPYTEPRP | -0.204
105 | RRIRWRPPRLPRPRPRPQKQPRP | 0.184
106 | RRIRGRPPRLPRPRPRPTWTPRP | 1.18
107 | RRIRRRPPRLPRPRPRPWQDPRP | 0.0293
108 | RRIRGRPPRLPRPRPRPKVMPRP | 0.696
109 | RRIRKRPPRLPRPRPRPVPMPRP | 0.355
110 | RRIRYRPPRLPRPRPRPKRMPRP | -0.207
111 | RRIRPRPPRLPRPRPRPCMLPRP | -0.663
112 | RRIRWRPPRLPRPRPRPTVFPRP | 0.255
113 | RRIRHRPPRLPRPRPRPIISPRP | -0.247
114 | RRIRYRPPRLPRPRPRPGFQPRP | -1.11
115 | RRIRQRPPRLPRPRPRPLDHPRP | -0.198
116 | RRIRVRPPRLPRPRPRPCHFPRP | -0.0858
117 | RRIRWRPPRLPRPRPRPWGPPRP | 0.384
118 | RRIRPRPPRLPRPRPRPAGNPRP | 0.194
119 | RRIRSRPPRLPRPRPRPIKGPRP | -0.00753
120 | RRIRRRPPRLPRPRPRPAMMPRP | 0.163
121 | RRIRRRPPRLPRPRPRPFQVPRP | -0.0462
122 | RRIRQRPPRLPRPRPRPYCYPRP | -0.198
123 | RRIRNRPPRLPRPRPRPVLFPRP | -0.326
124 | RRIRMRPPRLPRPRPRPNCTPRP | -0.15
125 | RRIRDRPPRLPRPRPRPWAEPRP | 0.302
